{"source": "paper doi:10.1101/2020.09.24.311712", "about": "“Surface condensation of a pioneer transcription factor on DNA”", "key": {"MBP-Klf4-GFP": {"molecular_target": "MBP-Klf4-GFP (Homo sapiens, UniProt O43474 1-513)", "sequence (O43474 whole entry)": "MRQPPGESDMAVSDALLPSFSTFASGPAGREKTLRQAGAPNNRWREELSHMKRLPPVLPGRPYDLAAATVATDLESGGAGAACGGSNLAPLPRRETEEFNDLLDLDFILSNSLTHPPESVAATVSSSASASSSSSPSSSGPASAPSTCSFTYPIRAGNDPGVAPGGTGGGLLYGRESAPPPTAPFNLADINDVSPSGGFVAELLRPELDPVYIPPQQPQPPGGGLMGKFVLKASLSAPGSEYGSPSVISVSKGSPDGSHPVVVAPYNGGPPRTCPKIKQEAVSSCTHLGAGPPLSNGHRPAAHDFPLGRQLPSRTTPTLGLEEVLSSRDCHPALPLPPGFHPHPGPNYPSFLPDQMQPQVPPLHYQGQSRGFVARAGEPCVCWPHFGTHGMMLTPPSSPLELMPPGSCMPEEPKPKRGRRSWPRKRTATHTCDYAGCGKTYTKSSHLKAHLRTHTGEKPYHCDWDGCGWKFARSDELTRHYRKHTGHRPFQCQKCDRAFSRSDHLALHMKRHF", "test": "EMSA; poly-d(IC) 37.5 ng; Kd value not in material; EMSA: 25 mM Tris pH 7.4, 125 mM KCl, 6% glycerol, 1 mM DTT, 0.1 mg/ml BSA, 7.5 nM Cy5-dsDNA, 37.5 ng poly-d(IC), 20 min at 4 °C", "settings": "protein: recombinant, tags: N-terminal MBP (3C-cleavable), label: Cy5 at 3' end of strand 1 (so in the source), blunt"}, "Klf4-GFP": {"molecular_target": "Klf4-GFP (Homo sapiens, UniProt O43474 1-513)", "sequence (O43474 whole entry)": "as above", "test": "EMSA; poly-d(IC) 37.5 ng; Kd plotted in ED Fig. 2c but value not in material; EMSA: 25 mM Tris pH 7.4, 125 mM KCl, 6% glycerol, 1 mM DTT, 0.1 mg/ml BSA, 7.5 nM Cy5-dsDNA, 37.5 ng poly-d(IC), 20 min at 4 °C", "settings": "protein: recombinant; tags: C-terminal GFP; MBP removed with 3C protease; label: Cy5 at 3' end of strand 1 (so in the source); blunt"}}}
{"binder": "Klf4 specific dsDNA EMSA (dsDNA) DNA 1: GGAGGGGTGTGGGGCTG DNA 2: CAGCCCCACACCCCTCC", "values": [{"measurement": "binding result", "setting": "MBP-Klf4-GFP", "value": "binds"}, {"measurement": "binding result", "setting": "Klf4-GFP", "value": "binds"}]}
